Experimental data taken from the RNAGym collection of RNA variant scans (doi:10.7554/elife.80360).

B1: CPEB3 Ribozyme (parent)
chain: GGGGGCCACAGCAGAAGCGUUCACGUCGCGGCCCCUGUCAGAUUCUGGUGAAUCUGCGAAUUCUGCUGU

Variants of: B1
Assay: self-cleavage, relative activity (ratio to wild type); higher = more cleavage; co-transcriptional

Variant	self-cleavage
G4C C7A	0.0992
G4C C7U	0.129
G4C A23C	0.432
G4C A23G	0.349
G4C A15C	0.145
G4C A15G	0.496
G4C A40U	0.228
G4C A40C	0.202
G4C A40G	0.526
G4A C39U	0.544
G4A C39A	0.521
G4C C12A	0.166
G4C C12G	0.148
G4C C12U	0.608
G4A C33G	0.68
G4A C24A	0.295
G4A C24G	0.177
G4A C24U	0.352
G4A G50U	0.849
G4A G50C	0.808
G4A G50A	0.839
G4A U49C	0.916
G4A U49G	0.728
G4A U26C	0.827

Variant	self-cleavage
G4C A42C	0.237
G4C A42U	0.354
G4C C18G	0.0437
G4C C18U	0.129
G4C C18A	0.0472
G4A G56C	0.456
G4A G56U	0.744
G4C A13G	0.472
G4C A13U	0.302
G4A G14C	0.305
G4A G14U	0.519
G4A G48A	0.92
G4A C66A	0.743
G4A C66U	0.852
G4A C35G	0.162
G4A C35A	0.175
G4C A10U	0.802
G4A U53C	0.617
G4C C27U	0.0743
G4A U67C	0.986
G4A U67G	0.918
G4A U67A	0.92
G4A U43A	0.683
G4A U43C	0.651

Variant	self-cleavage
G4A U43G	0.511
G4C A16G	0.122
G4A A59G	0.749
G4A A59C	0.32
G4A A59U	0.283
G4A C18G	0.158
G4A C18A	0.147
G4A C18U	0.481
G4C C9A	0.905
G4C C9G	0.899
G4C C9U	0.937
G4C C29A	0.0787
G4C C29G	0.0753
G4A U61A	0.477
G4A U61G	0.508
G4A U46C	0.828
G4A G37U	0.154
G4A G37C	0.149
G4A G37A	0.179
G4A A40C	0.216
G4C C6G	0.0309
G4C C6A	0.0438
G4A G30A	0.294
G4A G30U	0.0939

Variant	self-cleavage
G4A G30C	0.188
G4A G17C	0.0965
G4A G17A	0.175
G4A G47C	0.901
G4A G47A	0.895
G4A G65U	0.406
G4A G65A	0.735
G4A G65C	0.418
G4A U38A	0.761
G4A U38G	0.107
G4A C12A	0.477
G4A C12G	0.5
G4A G28C	0.162
G4A G28U	0.127
G4C C32U	0.198
G4A C63U	0.84
G4A G5A	0.103
G4A G5C	0.113
G4A G68U	0.978
G4A C29U	0.216
G4A C29G	0.103
G4A A52U	0.882
G4C C45A	0.419
G4C C45G	0.477

Variant	self-cleavage
G4A G11U	0.629
G4A G11C	0.631
G4A G11A	0.672
G4A U20A	0.23
G4A U20G	0.0767
G4C A52G	0.53
G4C A52C	0.38
G4A C9U	0.953
G4A C9G	1.05
G4A C9A	1.03
G4A A60G	0.475
G4A A60U	0.264
G4A A60C	0.217
G4A G31U	0.159
G4A G31C	0.148
G4C C24G	0.117
G4C C24A	0.167
G4A A23U	0.886
G4A A23G	0.827
G4A U36C	0.792
G4A U36G	0.424
G4C A51U	0.493
G4C A51G	0.567
G4C A51C	0.381

Variant	self-cleavage
G4A A51U	0.804
G4A C57U	0.223
G4A C57G	0.217
G4A C57A	0.245
G4C C35A	0.0948
G4C C35G	0.0833
G4A C6A	0.0589
G4A C22U	0.157
G4A C22G	0.165
G4A C34U	0.627
G4A C34A	0.31
G4A U69A	0.912
G4A U69G	0.985
G4A C32A	0.216
G4A C27U	0.19
G4A C27A	0.212
G4A A42G	0.806
G4A A42C	0.473
G4A U44C	0.679
G4A U44A	0.646
G4A U44G	0.558
G4A G19U	0.178
G4A G19C	0.11
G4A C7U	0.458

Variant	self-cleavage
G4A C7A	0.0893
G4A U62C	0.587
G4A G58U	0.9
G4A G58A	0.683
G4A G41A	0.506
G4A G25A	0.117
G4A G25U	0.0834
G4A U55G	0.52
G4A C45A	0.808
G4A C45U	0.909
G4C C22A	0.0918
G4A U21C	0.465
G4A U21G	0.253
G4A C54G	0.388
G4C A60U	0.174
G4C A8U	0.617
G4C A8C	0.578
G4C A8G	0.545
G4C C34G	0.0856
G4C A59U	0.203
G4C A59G	0.37
G4C C39U	0.261
G4C C39A	0.223
